Experimental data taken from patent US20080166370A1, “Immunogenic Compositions Comprising Multiple Gonococcal Antigens” (CHIRON SRL, priority 2003, published 2008).

T1: C4b binding protein (C4bp) (Homo sapiens, UniProt P04003)
T1 construct: incubated with 10% NHS as source of C4bp; from tissue; host or cells: 10% NHS (serum)
T1 sequence (P04003 49-597): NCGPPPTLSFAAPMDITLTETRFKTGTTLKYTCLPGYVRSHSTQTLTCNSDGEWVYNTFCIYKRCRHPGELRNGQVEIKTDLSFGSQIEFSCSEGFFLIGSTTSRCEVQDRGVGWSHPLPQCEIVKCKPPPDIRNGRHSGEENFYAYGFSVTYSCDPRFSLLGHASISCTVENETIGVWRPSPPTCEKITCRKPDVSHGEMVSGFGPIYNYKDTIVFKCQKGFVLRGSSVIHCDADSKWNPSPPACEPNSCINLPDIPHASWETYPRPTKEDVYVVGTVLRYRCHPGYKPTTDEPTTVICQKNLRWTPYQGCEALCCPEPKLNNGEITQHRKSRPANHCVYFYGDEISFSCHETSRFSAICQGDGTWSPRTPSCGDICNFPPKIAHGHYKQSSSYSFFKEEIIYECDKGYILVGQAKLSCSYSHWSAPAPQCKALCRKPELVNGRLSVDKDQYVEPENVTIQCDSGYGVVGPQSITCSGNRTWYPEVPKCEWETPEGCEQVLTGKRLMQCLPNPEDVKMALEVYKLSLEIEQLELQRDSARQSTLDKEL
T1 sequence (P20851 18-252 partner): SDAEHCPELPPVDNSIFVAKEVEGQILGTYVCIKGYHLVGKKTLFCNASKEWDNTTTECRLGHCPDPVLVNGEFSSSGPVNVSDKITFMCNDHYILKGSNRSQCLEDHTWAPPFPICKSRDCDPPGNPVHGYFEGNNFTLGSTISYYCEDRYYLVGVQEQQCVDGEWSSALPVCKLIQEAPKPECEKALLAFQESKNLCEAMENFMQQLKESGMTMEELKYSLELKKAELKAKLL

T2: C4b binding protein (C4bp) (Homo sapiens, UniProt P04003)
T2 sequence (P04003 49-597): T1 sequence (P04003 49-597)

B1: OmpA: gonococcal OmpA protein, SEQ ID 2; expressed in E. coli with C-terminal His-tag and purified (protein, listed as Neisseria gonorrhoeae)
chain: MTFFKPSTVVLTASALALSGCVADPVTGQQSPNKSAMYGLGGAAVCGIVGALTHSGKGARNSALACGAIGAGVGGYMDYQEQRLRQNLAGTQIEIQRQGNQIRLVMPESVTFATGSAALGGSAQYALNTAAQTLVQYPDTTLTINGHTDNTGSDAVNNPLSQHRAQAVAYYLQTRGVAASRLTVYGYGSHMPVASNATVEGRAQNRRVEILINPDQRAVNAARHM
modifications: C-terminal His-tag
notes: expressed in E. coli with C-terminal His-tag and purified
B2: App: gonococcal App autotransporter protein, SEQ ID 7, related to meningococcal adhesion penetration protein (protein, listed as Neisseria gonorrhoeae)
chain: MKTTDKRTTETHRKAPKTGRIRFSPAYLAICLSFGILPQARAGHTYFGINYQYYRDFAENKGKFAVGAKDIEVYNKKGELVGKSMTKAPMIDFSVVSRNGVAALAGDQYIVSVAHNGGYNNVDFGAEGSNPDQHRFSYQIVKRNNYKAGTNGHPYGGDYHMPRLHKFVTDAEPVEMTSYMDGWKYADLNKYPDRVRIGAGRQYWRSDEDEPNNRESSYHIASAYSWLVGGNTFAQNGSGGGTVNLGSEKIKHSPYGFLPTGGSFGDSGSPMFIYDAQKQKWLINGVLQTGNPYIGKSNGFQLVRKDWFYDEIFAGDTHSVFYEPHQNGKYFFNDNNNGAGKIDAKHKHYSLPYRLKTRTVQLFNVSLSETAREPVYHAAGGVNSYRPRLNNGENISFIDKGKGELILTSNINQGAGGLYFEGNFTVSPKNNETWQGAGVHISDGSTVTWKVNGVANDRLSKIGKGTLLVQAKGENQGSVSVGDGKVILDQQADDQGKKQAFSEIGLVSGRGTVQLNADNQFNPDKLYFGFRGGRLDLNGHSLSFHRIQNTDEGAMIVNHNQDKESTVTITGNKDITTTGNNNNLDSKKEIAYNGWFGEKDATKTNGGLNLNYPPEEADRTLLLSGGTNLNGNITQTNGKLFFSGRPTPHAYNHLGSGWSKMEGIPQGEIVWDNDWIDRTFKAENFHIQGGQAVVSRNVAKVEGDWHLSNHAQAVFGVAPHQSHTICTRSDWTGLTSCTEKTITDDKVIASLSKTDVRGNVSLADHAHLNLTGLATFNGNLVQAETRTIRLRANATQNGNLSLVGNAQATFNQATLNGNTSASDNASFNLSNNAVQNGSLTLSDNAKANVSHSALNGNVSLADKAVFHFENSRFTGKISGGKDTALHLKDSEWTLPSGTELGNLNLDNATITLNSAYRHDAAGAQTGSAADAPRRRSRRSLLSVTPPTSAESRFNTLTVNGKLNGQGTFRFMSELFGYRSGKLKLAESSEGTYTLAVNNTGNEPVSLEQLTVVEGKDNTPLSENLNFTLQNEHVDAGAWRYQLIRKDGEFRLHNPVKEQELSDKLGKAGETEAALTAKQAQLAAKQQAEKDNAQSLDALIAAGRNATEKAESVAEPARQAGGENAGIMQAEEEKKRVQADKDTALAKQREAETRPATTAFPRARRARRDLPQPQPQPQPQPQRDLISRYANSGLSEFSATLNSVFAVQDELDRVFAEDRRNAVWTSGIRDTKHYRSQDFRAYRQQTDLRQIGMQKNLGSGRVGILFSHNRTGNTFDDGIGNSARLAHGAVFGQYGIGRFDIGISAGAGFSSGSLSDGIRGKIRRRVLHYGIQARYRAGFGGFGIEPHIGATRYFVQKADYRYENVNIATPGLAFNRYRAGIKADYSFKPAQHISITPYLSLSYTDAASGKVRTRVNTAVLAQDFGKTRSAEWGVNAEIKGFTLSLHAAAAKGPQLEAQHSAGIKLGYRW

Assays:
[1] = target: T1, C4b binding protein (C4bp); experiment: ELISA for the interaction of C4bp with immobilized OmpA; conditions: OmpA immobilized from 0.15 mg to 20 mg; 10% NHS as source of C4bp (FIG. 24)
Description: It is known that some antigens contribute to serum resistance by binding to complement regulatory protein C4b binding protein (C4bp), leading to a decrease in serum killing by complement attack. […] In further experiments, purified OmpA and three negative control proteins were immobilized in the wells of a microtiter plate at different concentrations (from 0.15 mg to 20 mg). The wells were blocked with 5% skimmed milk in PBS and then incubated with 10% NHS as source of C4bp.

[2] = system: ME-180 human cervical epithelial cells; experiment: Immunofluorescence microscopy of purified OmpA binding to epithelial cells; type: cell-based; conditions: 1 mg/ml purified OmpA vs PBS control (FIG. 19)
Description: Monolayers of the ME-180 cells were treated with PBS (control) or with 1 mg/ml purified OmpA, labeled using polyclonal mouse antiserum against recombinant Ng OmpA-His, followed by anti-mouse Alexa Fluor 488 conjugated antibodies. The results are in FIG. 19.

[3] = target: T2, C4b binding protein (C4bp); experiment: Dot blot ligand overlay analysis of C4bp binding; conditions: C4bp 10 mg/ml; OmpA from 0.1 mg to 4 mg (FIG. 23)
complement cascade = experiment: C3 binding assay; conditions: FIG. 10

| Molecule | bound C4bp (ELISA) [1] | binding to ME-180 cells [2] | C4bp binding (dot blot) [3] | elicitation of complement-activating antibodies (complement cascade) |
| --- | --- | --- | --- | --- |
| B1 | bound C4bp was detected | binds | binding |  |
| B2 |  |  |  | able to elicit antibodies which activate the complement cascade |
